Laboratory results from article PMC9601805, “Characterization of the Escherichia coli pyridoxal 5′‐phosphate homeostasis protein (YggS): Role of lysine residues in PLP binding and protein stability” (Protein Science : A Publication of the Protein Society, 2022).
Substitutions are numbered along the chain they refer to. Names may count otherwise. “And” between values parts separate entries of the source, which are not always exact repeats. Equal entries are not always repeated. Where two headings read alike, the source gives them in different places.

Columns and labels:
apo‐YggS [1] = molecular target: T1, apo‐YggS (Escherichia coli, UniProt P67080); assay: biochemical; assay type: binding
T1 construct: made in house; host or cells: E. coli HMS174(DE3)
Protocol: The thermal stability of holo‐ and apo‐YggS forms was analyzed by differential scanning fluorimetry (DSF).
Differential scanning fluorimetry (DSF) assays were performed on a Real Time PCR Instrument (CFX Connect Real Time PCR system, Bio‐Rad, Hercules, CA). In a typical experiment, 2 μM WT and variant apo‐YggS forms in 50 mM NaHEPES, pH 7.5, 50 mM NaCl, and Sypro Orange (5x, Thermo Scientific) were mixed with various ligands (total volume of 25 μl) in a 96‐well PCR plate. […] All samples were run in triplicate. Denaturation profiles were analyzed as described in Nardella et al.[40]

apo‐YggS [2] = molecular target: T1, apo‐YggS; assay: biochemical; assay type: binding; details: for Kd: dissociation constant (K D), ligand binding to WT apo-YggS, fluorescence change, 50 mM NaHEPES pH 7.6
Protocol: (§1) Equilibrium binding analyses were carried out by measuring the decrease of protein intrinsic fluorescence observed upon the addition of increasing PLP concentrations to a fixed concentration of apo‐YggS (Figure 1b).
Dissociation constants were calculated from saturation curves obtained measuring the protein fluorescence emission intensity as a function of increasing PLP concentration. […] Fluorescence emission spectra were recorded from 310 to 450 nm upon excitation at 280 nm. Excitation and emission slits were set at 3 and 5 nm, respectively.

apo‐YggS [3] = molecular target: T1, apo‐YggS; assay: Kinetics of PLP binding to apo-YggS, absorbance of protonated Schiff base; details: manual mixing time
Protocol: as §1
(§2) We set up a novel in vitro discontinuous assay in which PLP transfer from holo‐YggS to the apo‐form of eSHMT could be followed (see Section 4 for details). In this assay, the increase in SHMT activity is measured as PLP dissociates from holo‐YggS and binds to apo‐SHMT, forming the catalytically active holo‐SHMT. […] The binding kinetics of free PLP to either apo‐YggS or apo‐SHMT was measured by manually mixing 20 μM free PLP with 20 μM of protein, observing the formation of the internal aldimine at 420 nm.

eSHMT = eSHMT (Escherichia coli, UniProt P0A825); assay: PLP binding to eSHMT; details: read-out: K D for PLP
[4] = molecular target: T2, E. coli serine hydroxymethyltransferase, apo-form (E. coli, UniProt P0A825 1-417); assay: SPR; SensiQ Pioneer, COOH5 chip; apo-SHMT immobilised via amine coupling (100 RU); holo-YggS injected at 0.24-180 μM in PBS with 0.005% surfactant P20, 30 μl/min; done twice; Scatchard analysis; details: both partners purified
T2 construct: serine hydroxymethyltransferase of E. coli, encoded by the glyA gene; without PLP (apo-form); also called apo-SHMT; apoSHMT; source: apo-form prepared with L-cysteine as for apo-YggS
T2 sequence (looked up): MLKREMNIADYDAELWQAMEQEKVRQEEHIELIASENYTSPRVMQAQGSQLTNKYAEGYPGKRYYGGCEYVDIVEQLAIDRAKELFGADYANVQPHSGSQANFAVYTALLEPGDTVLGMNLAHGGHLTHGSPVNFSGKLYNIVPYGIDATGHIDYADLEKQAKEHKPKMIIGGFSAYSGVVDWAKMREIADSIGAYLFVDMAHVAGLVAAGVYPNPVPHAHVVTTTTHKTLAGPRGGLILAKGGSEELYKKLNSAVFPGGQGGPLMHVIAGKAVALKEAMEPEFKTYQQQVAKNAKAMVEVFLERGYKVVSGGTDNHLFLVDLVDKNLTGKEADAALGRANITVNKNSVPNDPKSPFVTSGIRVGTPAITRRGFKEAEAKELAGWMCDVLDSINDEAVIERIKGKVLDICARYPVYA

E. coli ΔyggS = assay: 4dPN sensitivity assay and complementation by YggS variants in trans; assay type: cell-based, Escherichia coli; details: expression in trans, M9 0.4% glucose, 1 μM PN, 20 μl of 25 mM 4dPN
Protocol: Bacteria were grown in Luria‐Bertani (LB; Tryptone 10 g L^− 1, Yeast extract 5 g L^− 1, NaCl 10 g L^− 1) or M9 minimal medium (Cold Spring Harbor Protocols, Cold Spring Harbor, NY) at 37°C, unless otherwise specified. Growth media were solidified with agar (16 g L^− 1; Fisher Scientific) for the preparation of plates. 4dPN toxicity assays were performed on thin (20 ml) M9 minimal medium plates containing 0.4% glucose (carbon source), ampicillin (100 μg ml^−1), 1 μM PN, and 0.02% or 0.2% arabinose when appropriate.
Wild‐type yggS was amplified by PCR with primers DH596 and DH598 from E. coli BW25113 and cloned in pBAD24 using restriction sites SphI and NcoI to give pBY291.3. The pBY291.3 plasmid and its derivatives were then used as templates with the NEB Q5 Site‐Directed Mutagenesis Kit and the primer pairs indicated in Table S4 to introduce site‐directed residue mutant constructs. All constructs were verified by sequencing and transformed into E. coli wild‐type (BW25113) and ΔyggS (VDC6594) electrocompetent cells for use in physiological studies. Plasmid transformations were performed following standard procedures and protein expression from each construct was confirmed by SDS‐PAGE and western blot analysis.
Three isolated colonies of each strain were inoculated into 5 ml LB Amp 200 μg ml^− 1 and incubated at 37°C and 200 rpm overnight. Overnight cultures were diluted 1:500 into 5 ml fresh LB Amp 200 μg ml^− 1 ± 0.02% or 0.2% arabinose and grown at 37°C, shaking. Once cultures reached midlog growth (OD600 of 0.4–0.7) samples were taken from each culture for western blot analysis (below) then cells were again incubated until stationary growth was reached (~6 hr). Cells were harvested by centrifugation then washed twice with and resuspended in 1x PBS. Optical density of washed cells was measured at 600 nm in 1 ml cuvettes (Fisher Scientific) using a BioSpec‐mini DNA/RNA/Protein analyzer (Shimadzu Biotech) and each strain was normalized to an OD600 of 0.006 in 3 ml 1x PBS. […]

[5] = Covalent (Schiff base) PLP binding judged by absorption spectra; details: ~416–420 nm band
Protocol: Our strategy was to start from the K36A variant and gradually add further variations so as to obtain all possible combinations of double, triple, and quadruple variants. Variations of the last two residues at the C‐terminal end of the protein, K233 and K234, were always introduced together and are therefore considered as a single K233A/K234A variation.
All spectroscopic measurements were carried out at 20°C in 20 mM NaHEPES pH 7.5. UV–visible spectra were recorded with a Hewlett‐Packard 8453 diode‐array spectrophotometer. Far‐UV (190–250 nm) and Near‐UV–visible (250–500 nm) CD spectra were measured with a Jasco 710 spectropolarimeter equipped with a DP 520 processor using 0.1‐cm (far‐UV) or 1‐cm path length quartz cuvettes and results were expressed as ellipticity [Θ]. Absorption spectra of WT and variant forms were deconvoluted into their component bands using Metzler's band‐shape analysis method.[22]

apo‐eSHMT = apo‐eSHMT (Escherichia coli, UniProt P0A825)
Protocol: as §2
WT Holo‐YggS (20 μM with respect to PLP) was mixed with 20 μM apo‐eSHMT in 50 mM NaHEPES buffer at pH 7.6.

[6] = PLP binding equilibrium of YggS WT and variant forms, intrinsic fluorescence change; details: E. coli YggS form 0.1 μM, 50 mM NaHEPES pH 7.6, 25°C, excitation 280 nm; mean ± SEM; read-out: K D (nM) of the PLP binding equilibrium
Protocol: Analyses took advantage of YggS intrinsic fluorescence decrease observed upon binding of PLP. Dissociation constants were calculated from saturation curves obtained measuring the protein fluorescence emission intensity as a function of increasing PLP concentration. Fluorescence emission measurements were carried out at 25°C, in 50 mM NaHEPES buffer at pH 7.6 with a FluoroMax‐3 Jobin Yvon Horiba spectrofluorometer, using a 1‐cm path length quartz cuvette. All analyzed YggS forms were used at a final subunit concentration of 0.1 μM. Fluorescence emission spectra were recorded from 310 to 450 nm upon excitation at 280 nm. Excitation and emission slits were set at 3 and 5 nm, respectively. Emission fluorescence values between 330 and 340 nm were averaged and analyzed using the following quadratic equation to obtain K D value: (1) Frel=Finf−F0×PLP+[YggS]+KD−PLP+[YggS]+KD^2−4[YggS]PLP/2/[YggS]+F0

[7] = Differential scanning fluorimetry (DSF), apparent Tm of YggS forms; assay type: physicochemical; details: for T m (°C) Apo +2 μM PLP: 2 μM protein + 2 μM (equimolar) PLP; for T m (°C) Apo + 300 μM PLP: 2 μM protein + 300 μM PLP; for T m (°C) Apo: apo-form, 2 μM protein, no PLP
Protocol: Differential scanning fluorimetry (DSF) assays were performed on a Real Time PCR Instrument (CFX Connect Real Time PCR system, Bio‐Rad, Hercules, CA). In a typical experiment, 2 μM WT and variant apo‐YggS forms in 50 mM NaHEPES, pH 7.5, 50 mM NaCl, and Sypro Orange (5x, Thermo Scientific) were mixed with various ligands (total volume of 25 μl) in a 96‐well PCR plate. Fluorescence was measured from 25°C to 95°C in 0.4°C/30 s steps (excitation 450–490 nm; detection 560–580 nm). All samples were run in triplicate. Denaturation profiles were analyzed as described in Nardella et al.[40]

[8] = 20 μM holo-YggS, 20 μM apo-SHMT, 37°C

Cc1ncc(CO)c(C=O)c1O [PL, pyridoxal]
binding to apo-YggS by DSF (apo‐YggS [1]; B6 vitamers and analogs): only PL and PNP bind
Kd (apo‐YggS [2]): 57000 ± 20000 nM

Cc1ncc(COP(=O)(O)O)c(C=O)c1O [PLP, pyridoxal 5′‐phosphate]
time to reach PLP binding equilibrium (apo‐YggS [3]): ≤ 3 s
Kd (eSHMT): ~5 nM
Kd (apo‐YggS [1]): ~50000 nM
Kd (apo‐YggS [2]): 1.3 nM and ~1 nM
stoichiometry ratio of PLP binding (apo‐YggS [2]; titration with 1 μM apo-YggS): one

B1: Escherichia coli pyridoxal 5'-phosphate homeostasis protein (YggS), wild type, holo-form (natural protein, E. coli, UniProt P67080 1-234, looked up)
chain: MNDIAHNLAQVRDKISAAATRCGRSPEEITLLAVSKTKPASAIAEAIDAGQRQFGENYVQEGVDKIRHFQELGVTGLEWHFIGPLQSNKSRLVAEHFDWCHTIDRLRIATRLNDQRPAELPPLNVLIQINISDENSKSGIQLAELDELAAAVAELPRLRLRGLMAIPAPESEYVRQFEVARQMAVAFAGLKTRYPHIDTLSLGMSDDMEAAIAAGSTMVRIGTAIFGARDYSKK
modifications: PLP covalently bound to Lys36 through a Schiff base linkage
notes: YggS (PLP homeostasis protein, PLPHP) of E. coli; K233 and K234 are the last two residues; Two wild-type constructs were made in pET28b(+): His-tag at the C-terminal end (NcoI/XhoI, pET28yggS) and His-tag at the N-terminal end (NdeI/EcoRI); Samples from the standard purification held about 70-80% PLP per monomer; also called holo-YggS; YggS-PLP; source: E. coli HMS174(DE3), purified (ammonium …)
Kd [4]: 4800 ± 800 nM

B2: K137A: E. coli YggS single lysine variant K137A (protein)
chain: B1 chain with K137A
modifications: left off: His-tag, C-terminal, state not stated
complementation of the 4dPN sensitivity phenotype of ΔyggS (E. coli ΔyggS): failed to complement
capability to bind PLP covalently as a Schiff base [5]: able to bind PLP as a Schiff base
PLP transfer kinetics compared with WT YggS (apo‐eSHMT; transfer to apo-SHMT): same transfer kinetics as that observed with WT YggS
Kd [6]: 1.8 ± 1.9 nM
T m (°C) Apo +2 μM PLP [7]: 71.5 ± 0.1 °C
T m (°C) Apo + 300 μM PLP [7]: 82.5 ± 0.1 °C
T m (°C) Apo [7]: 60.3 ± 0.1 °C

B3: WT: recombinant His-tagged wild-type E. coli YggS, the PLP homeostasis protein (PLPHP) (protein)
chain: B1 chain
modifications: PLP covalently bound to Lys36 through a Schiff base linkage; left off: His-tag, end not stated, kept
complementation of the 4dPN sensitivity phenotype of ΔyggS (E. coli ΔyggS): complemented
PLP initially bound to YggS transferred to SHMT at equilibrium (apo‐eSHMT; [8]): approximately 15%
time to reach PLP transfer equilibrium (apo‐eSHMT; [8]): about 30 min
rate constant of PLP transfer (apo‐eSHMT; 20 μM holo-YggS, 20 μM apo-SHMT, 37°C, 50 mM NaHEPES pH 7.6): 0.14 ± 0.02 min⁻¹
Kd [6]: 1.3 ± 0.8 nM
T m (°C) Apo +2 μM PLP [7]: 70.8 ± 0.8 °C
T m (°C) Apo +2 μM PLP ([7]; listed as apo‐YggS): 70 °C
T m (°C) Apo + 300 μM PLP [7]: 82.2 ± 0.1 °C
T m (°C) Apo + 300 μM PLP ([7]; listed as apo‐YggS): about 82 °C
T m (°C) Apo [7]: 55.1 ± 0.3 °C
T m (°C) Apo ([7]; listed as apo‐YggS): 56 °C
